Values quoted from earlier work in PMC9917595.

Target: Endothelin-1 (Homo sapiens) (UniProt P05305)
Conditions: cited from earlier work

Chain of UniProt P05305 (P05305 53-73): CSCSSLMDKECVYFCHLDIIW

Endothelin B receptor (from UniProt P24530)
Kd: 0.0286 nM
